Results on three proteins are retold here after publication PMC10380307, “Enzymatic Characterization of the Isocitrate Dehydrogenase with Dual Coenzyme Specificity from the Marine Bacterium Umbonibacter marinipuiceus” (International Journal of Molecular Sciences, 2023).

Substrate in data set [1]: NC(=O)c1ccc[n+]([C@@H]2O[C@H](COP(=O)(O)OP(=O)(O)OC[C@H]3O[C@@H](n4cnc5c(N)ncnc54)[C@H](O)[C@@H]3O)[C@@H](O)[C@H]2O)c1
The data set is described as follows: purified protein. The data set is classed as biochemical, Umboniibacter marinipuniceus. The following applies: 1 mM DL-isocitrate, 50 mM Tris-HCl pH 8.5, 25 °C, apparent constant, varied: cofactor.

Substrate in data set [2]: NC(=O)c1ccc[n+]([C@@H]2O[C@H](COP(=O)(O)OP(=O)(O)OC[C@H]3O[C@@H](n4cnc5c(N)ncnc54)[C@H](OP(=O)(O)O)[C@@H]3O)[C@@H](O)[C@H]2O)c1
In words: purified protein. The data set is classed as biochemical, Umboniibacter marinipuniceus. The following applies: 1 mM DL-isocitrate, 50 mM Tris-HCl pH 8.5, 25 °C, apparent constant, varied: cofactor.

B1: UmIDH (Umboniibacter marinipuniceus) (protein)
chain: MTFQYILPPKSGEPIQHTQDNQIIVPDRPIIPYIEGDGIGIDITPVMLEVVDAAVAQAYKGKKSIAWMEVFCGEKAADIYEGDWFPPETLAALQKYSVAIKGPLTTPIGGGFRSLNVALRQELDLYVCQRPIQWFKGVPSVVRKPNAVKMVIFRENSEDIYAGIEWRAGSEEAIKVTRFLQEEMGVTSLRFTENCGLGVKPISEQGSKRLVRKAIEYAIAHDKPSVTMVHKGNIMKYTEGAFCEWGYEVACEEFGATHEADSPWLTIINPNTAAKIVIKDVIADAMMQEILMYPQDHSVIATMNLNGDYLSDALAAQVGGIGIAPGANIGDRIALFEPTHGTAPRLAGMDRVNPCSLILSAEMMLRHLGWTKAADLMVKGVKYTISDRTVTHDFHSMMEHAELLSTSEFGAAVIKNMRRR
notes: full-length, codon-optimised synthetic gene in pET28b (NdeI/XhoI), 6xHis tag, E. coli Rosetta (DE3); Type I IDH; putative coenzyme residues R345, L346, V352
For orientation: Km means the concentration of substrate that gives half-maximal velocity. A word on the kcat: it is the maximal rate divided by the concentration of active sites. As a reminder, the kcat/Km is the turnover number divided by the Michaelis constant. For the protein B1, in data set [1] (Mn2+ (2 mM)), the Km worked out at 1800.0 ± 64.4 µM, the catalytic constant (kcat) was 7.5 ± 0.3 s⁻¹ and the kcat/Km stood at 4200 M⁻¹ s⁻¹. In data set [2] (Mn2+ (2 mM)), the Km was determined as 1167.7 ± 113.0 µM, the turnover number (kcat) worked out at 11.1 ± 0.4 s⁻¹ and the catalytic efficiency (kcat/Km) was found to be 9500 M⁻¹ s⁻¹.

B2: UmIDH (Umboniibacter marinipuniceus; L346I/R345D/V352A) (protein)
chain: MTFQYILPPKSGEPIQHTQDNQIIVPDRPIIPYIEGDGIGIDITPVMLEVVDAAVAQAYKGKKSIAWMEVFCGEKAADIYEGDWFPPETLAALQKYSVAIKGPLTTPIGGGFRSLNVALRQELDLYVCQRPIQWFKGVPSVVRKPNAVKMVIFRENSEDIYAGIEWRAGSEEAIKVTRFLQEEMGVTSLRFTENCGLGVKPISEQGSKRLVRKAIEYAIAHDKPSVTMVHKGNIMKYTEGAFCEWGYEVACEEFGATHEADSPWLTIINPNTAAKIVIKDVIADAMMQEILMYPQDHSVIATMNLNGDYLSDALAAQVGGIGIAPGANIGDRIALFEPTHGTAPDIAGMDRANPCSLILSAEMMLRHLGWTKAADLMVKGVKYTISDRTVTHDFHSMMEHAELLSTSEFGAAVIKNMRRR
notes: as for B1
As to B2, in data set [1] (metal not stated for mutants), the Km is 369.7 ± 11.84 µM, the catalytic constant (kcat) worked out at 17.7 ± 0.9 s⁻¹ and the kcat/Km is 48000 M⁻¹ s⁻¹.

B3: UmIDH (Umboniibacter marinipuniceus; L346Y/R345K) (protein)
chain: MTFQYILPPKSGEPIQHTQDNQIIVPDRPIIPYIEGDGIGIDITPVMLEVVDAAVAQAYKGKKSIAWMEVFCGEKAADIYEGDWFPPETLAALQKYSVAIKGPLTTPIGGGFRSLNVALRQELDLYVCQRPIQWFKGVPSVVRKPNAVKMVIFRENSEDIYAGIEWRAGSEEAIKVTRFLQEEMGVTSLRFTENCGLGVKPISEQGSKRLVRKAIEYAIAHDKPSVTMVHKGNIMKYTEGAFCEWGYEVACEEFGATHEADSPWLTIINPNTAAKIVIKDVIADAMMQEILMYPQDHSVIATMNLNGDYLSDALAAQVGGIGIAPGANIGDRIALFEPTHGTAPKYAGMDRVNPCSLILSAEMMLRHLGWTKAADLMVKGVKYTISDRTVTHDFHSMMEHAELLSTSEFGAAVIKNMRRR
notes: as for B1
With B3, in data set [2] (metal not stated for mutants), the Km turned out to be 605.9 ± 38.2 µM, the kcat amounted to 15.3 ± 0.2 s⁻¹ and the specificity constant (kcat/Km) was 25000 M⁻¹ s⁻¹.
